Laboratory results taken from patent publication US20190382503A1 (published 2019).

Columns and labels:
human CD137 on cells = human CD137 on cells (UniProt Q07011 24-255); experiment: FACS binding CHO-K1/human CD137 cells
cynomolgus 5T4 on cells = biological target: T1, cynomolgus 5T4 on cells (cynomolgus macaque, UniProt Q4R8Y9 35-420); experiment: FACS binding CHO-K1/cynomolgus 5T4 cells
T1 chain: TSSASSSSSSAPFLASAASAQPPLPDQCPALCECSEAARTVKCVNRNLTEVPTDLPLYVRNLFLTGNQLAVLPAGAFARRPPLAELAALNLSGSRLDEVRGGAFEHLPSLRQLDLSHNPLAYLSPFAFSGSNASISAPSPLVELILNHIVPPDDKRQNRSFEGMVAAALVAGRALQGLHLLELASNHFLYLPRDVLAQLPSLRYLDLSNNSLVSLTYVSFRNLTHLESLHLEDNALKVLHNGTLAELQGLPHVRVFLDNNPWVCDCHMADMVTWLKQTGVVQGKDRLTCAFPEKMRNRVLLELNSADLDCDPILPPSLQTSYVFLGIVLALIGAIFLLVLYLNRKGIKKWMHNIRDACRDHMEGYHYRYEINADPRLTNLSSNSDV

human 5T4 on cells = biological target: T2, human 5T4 on cells (UniProt Q13641 32-420); experiment: FACS binding CT26 human 5T4 cells; CT26 cells
T2 chain: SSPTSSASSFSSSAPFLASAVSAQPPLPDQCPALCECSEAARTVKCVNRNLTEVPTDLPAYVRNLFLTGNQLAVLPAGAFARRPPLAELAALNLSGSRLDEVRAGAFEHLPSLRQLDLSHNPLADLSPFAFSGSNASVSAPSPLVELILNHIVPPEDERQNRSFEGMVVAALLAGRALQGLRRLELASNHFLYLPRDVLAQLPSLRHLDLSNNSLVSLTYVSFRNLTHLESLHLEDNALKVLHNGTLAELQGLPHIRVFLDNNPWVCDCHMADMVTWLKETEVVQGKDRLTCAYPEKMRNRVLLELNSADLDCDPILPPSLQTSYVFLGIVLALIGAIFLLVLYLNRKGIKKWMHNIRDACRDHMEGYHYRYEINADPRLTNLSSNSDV

Sequence of human CD137 on cells (Q07011 24-255): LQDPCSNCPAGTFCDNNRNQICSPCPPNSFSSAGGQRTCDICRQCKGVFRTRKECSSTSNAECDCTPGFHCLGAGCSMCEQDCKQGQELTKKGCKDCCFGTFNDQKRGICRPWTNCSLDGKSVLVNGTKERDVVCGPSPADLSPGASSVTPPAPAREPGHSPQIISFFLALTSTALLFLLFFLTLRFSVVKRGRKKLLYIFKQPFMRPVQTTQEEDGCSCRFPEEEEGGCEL

EC50 (human CD137 on cells): 0.39 nM | EC50 (cynomolgus 5T4 on cells): 6.5 nM | EC50 (human 5T4 on cells): 1.5 nM
B1: ALG.APV-004 (bispecific antibody)
chain 1: EVQLLESGGGLVQPGGSLRLSCAASGFTFSYGSMYWVRQAPGKGLEWVSSISSGSGSTYYADSVKGRFTISRDNSKNTLYLQMNSLRAEDTAVYYCARSSYYGSYYSIDYWGQGTLVTVSSEVQLLESGGGLVQPGGSLRLSCAASGFTFSSYAMSWVRQAPGKCLEWVSAISGSGGSTYYADSVKGRFTISRDNSKNTLYLQMNSLRAEDTAVYYCARYYGGYYSAWMDYWGQGTLVTVSSDIQMTQSPSSLSASVGDRVTITCRASQSISSYLNWYQQKPGKAPKLLIYAASSLQSGVPSRFSGSGSGTDFTLTISSLQPEDFATYYCQQTYGYLHTFGCGTRLEIK
chain 2: DIQMTQSPSSLSASVGDRVTITCRASQSISSYLNWYQQKPGKAPKLLIYAASSLQSGVPSRFSGSGSGTDFTLTISSLQPEDFATYYCQQYYDNLPTFGQGTKLEIK
